Among the data in US20220025071A1 are EC50 (pM) Neutralization, South Africa B.1.351, EC50 (pM) Neutralization, N439K and fold less potent than REGN10933 in pseudovirus neutralization values, retold here.

Several values for one entry are separate records, joined by “and”; a condition that tells them apart may be missing. Equal entries are not always repeated.

The target of test [1] is SARS-CoV-2 spike protein, South African Δ3 B.1.351 variant (pseudovirus RVP-724) (SARS-CoV-2) (UniProt P0DTC2). Put plainly: cell-based or functional assay.
In test [2] the target is SARS-CoV-2 spike protein, N439K variant (pseudovirus RVP-703) (SARS-CoV-2) (UniProt P0DTC2). Put plainly: cell-based or functional assay.

On to “REGN10987 (Imdevimab, biosimilar version) (antibody)”, for which, in test [1], the EC50 (pM) Neutralization, South Africa B.1.351 is 2.48 pM and 2.37 pM. In test [2], the EC50 (pM) Neutralization, N439K was 2260 pM and 2220 pM; the fold less potent than REGN10933 in pseudovirus neutralization is 1000 fold.
